The values that follow come from the supplement of paper PMC9112550, “Optimization of the antimicrobial peptide Bac7 by deep mutational scanning” (BMC Biology, 2022).
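Also: peptides expressed intracellularly from a pBAD plasmid library in pooled LB shake-flask culture, induced with 0.3% L-arabinose, DNA abundance read by NGS, three biological replicates, DESeq2 with apeglm shrinkage.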

The subject of this series is Escherichia coli TOP10. The experiment in a line: shrunken log2 fold change of peptide-encoding DNA abundance (4.5 h post-induction vs induction); higher = less antimicrobial activity (less host growth inhibition). The settings on record: time post-induction: 4.5 h; library: site-saturation at positions 5, 18, 19, 20.
For RRIRGRPPRLPRPRPRPRCRPRP, the “shrunken log2 fold change” value worked out at 0.957.

For RRIRKRPPRLPRPRPRPKHCPRP, the “shrunken log2 fold change” value was -0.222. RRIRSRPPRLPRPRPRPCVYPRP: the “shrunken log2 fold change” value is -0.0613. Under RRIRERPPRLPRPRPRPKQLPRP stands 0.123. In the case of RRIRWRPPRLPRPRPRPCDAPRP it was 0.138; in that of RRIRNRPPRLPRPRPRPMFDPRP, -0.253. Under RRIRTRPPRLPRPRPRPHPLPRP stands -0.503.

As to RRIRDRPPRLPRPRPRPMHNPRP, the “shrunken log2 fold change” value is -0.696. In the case of RRIRHRPPRLPRPRPRPMGVPRP it was -0.00663.

In the case of RRIRNRPPRLPRPRPRPVHPPRP, the “shrunken log2 fold change” value was -0.0892. On to RRIRRRPPRLPRPRPRPGNAPRP, for which the “shrunken log2 fold change” value is 0.304. Under RRIRFRPPRLPRPRPRPSHKPRP stands -0.121; under RRIRLRPPRLPRPRPRPWGSPRP, 0.103; under RRIRQRPPRLPRPRPRPMYMPRP, -0.0317.

Turning to RRIRHRPPRLPRPRPRPKHWPRP, the “shrunken log2 fold change” value is 0.26.

Turning to RRIRPRPPRLPRPRPRPECPPRP, the “shrunken log2 fold change” value stood at 0.353.

As for RRIRCRPPRLPRPRPRPDPVPRP, the “shrunken log2 fold change” value came to 0.205. Under RRIRGRPPRLPRPRPRPNDCPRP stands -0.04; under RRIRNRPPRLPRPRPRPLGFPRP, 0.0608; under RRIRTRPPRLPRPRPRPRCDPRP, 0.13. For the sequence RRIRSRPPRLPRPRPRPQRTPRP, the “shrunken log2 fold change” value was -0.036.

As to RRIRKRPPRLPRPRPRPSWRPRP, the “shrunken log2 fold change” value was 0.211. Consider RRIRVRPPRLPRPRPRPMMMPRP, for which the “shrunken log2 fold change” value was -0.0802. Under RRIRNRPPRLPRPRPRPRENPRP stands -0.0577. RRIRIRPPRLPRPRPRPQFLPRP: the “shrunken log2 fold change” value is -0.186. In the case of RRIRIRPPRLPRPRPRPRQAPRP it was 0.0194; in that of RRIRDRPPRLPRPRPRPMLEPRP, 0.358; in that of RRIRCRPPRLPRPRPRPTRNPRP, 0.444. In the case of RRIRYRPPRLPRPRPRPKGKPRP, the “shrunken log2 fold change” value is -0.215. For the sequence RRIRFRPPRLPRPRPRPGWKPRP, the “shrunken log2 fold change” value is 0.208.

Regarding RRIRVRPPRLPRPRPRPATMPRP, the “shrunken log2 fold change” value is -0.259. In the case of RRIRRRPPRLPRPRPRPISPPRP it was -0.00237; in that of RRIRFRPPRLPRPRPRPICEPRP, -0.0168; in that of RRIRKRPPRLPRPRPRPCCDPRP, 0.217. Under RRIRARPPRLPRPRPRPKSFPRP stands 0.0951; under RRIRCRPPRLPRPRPRPICGPRP, 0.289; under RRIRVRPPRLPRPRPRPNHVPRP, -0.3. On to RRIRWRPPRLPRPRPRPALYPRP, for which the “shrunken log2 fold change” value turned out to be 0.232. On to RRIRIRPPRLPRPRPRPRCTPRP, for which the “shrunken log2 fold change” value was -0.141. As for RRIRPRPPRLPRPRPRPGLQPRP, the “shrunken log2 fold change” value was -0.0954. Under RRIRYRPPRLPRPRPRPDAQPRP stands -0.0145. Under RRIRNRPPRLPRPRPRPGCTPRP stands 0.0156; under RRIRFRPPRLPRPRPRPVKCPRP, -0.0573; under RRIRIRPPRLPRPRPRPQSPPRP, 0.0218. For RRIRRRPPRLPRPRPRPWHKPRP, the “shrunken log2 fold change” value was -0.384. In the case of RRIRLRPPRLPRPRPRPVVMPRP, the “shrunken log2 fold change” value is -0.282.

For RRIRTRPPRLPRPRPRPGHSPRP, the “shrunken log2 fold change” value is 0.0834. As for RRIRRRPPRLPRPRPRPIDAPRP, the “shrunken log2 fold change” value amounted to 0.227. RRIRMRPPRLPRPRPRPFSFPRP: the “shrunken log2 fold change” value is -0.0784. Take RRIRFRPPRLPRPRPRPPLDPRP: the “shrunken log2 fold change” value is 0.461. Regarding RRIRFRPPRLPRPRPRPECFPRP, the “shrunken log2 fold change” value is 0.0331. As to RRIRYRPPRLPRPRPRPIGCPRP, the “shrunken log2 fold change” value was 0.225. Take RRIRPRPPRLPRPRPRPDFDPRP: the “shrunken log2 fold change” value was -0.03. In the case of RRIRKRPPRLPRPRPRPPCHPRP it was 0.176; in that of RRIRERPPRLPRPRPRPSFSPRP, -0.765; in that of RRIRERPPRLPRPRPRPGGEPRP, 0.127.

Regarding RRIRSRPPRLPRPRPRPQTNPRP, the “shrunken log2 fold change” value was -0.032. In the case of RRIRDRPPRLPRPRPRPYPEPRP it was 0.0271; in that of RRIRIRPPRLPRPRPRPKCDPRP, -0.352; in that of RRIRWRPPRLPRPRPRPDISPRP, -0.135. In the case of RRIRMRPPRLPRPRPRPFSPPRP it was -0.189; in that of RRIRMRPPRLPRPRPRPVSMPRP, 0.382; in that of RRIRNRPPRLPRPRPRPHFSPRP, 0.0053.

For the sequence RRIRTRPPRLPRPRPRPACAPRP, the “shrunken log2 fold change” value came out at 0.441.

On to RRIRVRPPRLPRPRPRPKKTPRP, for which the “shrunken log2 fold change” value is -0.0604. In the case of RRIRCRPPRLPRPRPRPCPGPRP it was -0.191; in that of RRIRMRPPRLPRPRPRPLTWPRP, 0.308; in that of RRIRFRPPRLPRPRPRPKNAPRP, -0.0814. On to RRIRCRPPRLPRPRPRPNVKPRP, for which the “shrunken log2 fold change” value is -0.482.

Consider RRIRDRPPRLPRPRPRPGQPPRP, for which the “shrunken log2 fold change” value was -0.181. Under RRIRCRPPRLPRPRPRPSMRPRP stands 0.303.

Take RRIRGRPPRLPRPRPRPKKIPRP: the “shrunken log2 fold change” value stood at 0.494. In the case of RRIRWRPPRLPRPRPRPKNTPRP it was -0.127; in that of RRIRTRPPRLPRPRPRPFIPPRP, -0.312. Under RRIRFRPPRLPRPRPRPQEGPRP stands -0.00638.

On to RRIRYRPPRLPRPRPRPIKMPRP, for which the “shrunken log2 fold change” value is -0.666. Regarding RRIRDRPPRLPRPRPRPCPGPRP, the “shrunken log2 fold change” value was -0.0964. With RRIRYRPPRLPRPRPRPTDKPRP, the “shrunken log2 fold change” value was -0.347.

RRIRGRPPRLPRPRPRPLPCPRP: the “shrunken log2 fold change” value stood at 0.51.

With RRIRLRPPRLPRPRPRPHCSPRP, the “shrunken log2 fold change” value was -0.747. On to RRIRTRPPRLPRPRPRPEPNPRP, for which the “shrunken log2 fold change” value was -0.0182. In the case of RRIRSRPPRLPRPRPRPGDAPRP it was 0.298; in that of RRIRMRPPRLPRPRPRPECVPRP, 2.97; in that of RRIRPRPPRLPRPRPRPKMLPRP, -0.222. On to RRIRHRPPRLPRPRPRPNYHPRP, for which the “shrunken log2 fold change” value was -0.83. In the case of RRIRKRPPRLPRPRPRPRWVPRP it was 0.642.

As for RRIRYRPPRLPRPRPRPFPMPRP, the “shrunken log2 fold change” value is -0.834.

As for RRIRCRPPRLPRPRPRPAPIPRP, the “shrunken log2 fold change” value worked out at 1.74. Turning to RRIRERPPRLPRPRPRPERDPRP, the “shrunken log2 fold change” value was -0.0208.

For RRIRARPPRLPRPRPRPLNHPRP, the “shrunken log2 fold change” value was -0.265. In the case of RRIRCRPPRLPRPRPRPNEKPRP it was -0.00225; in that of RRIRDRPPRLPRPRPRPYVDPRP, -0.0902. In the case of RRIRGRPPRLPRPRPRPWTYPRP it was 0.0864. As to RRIRMRPPRLPRPRPRPFRAPRP, the “shrunken log2 fold change” value worked out at 0.452. Under RRIRLRPPRLPRPRPRPISVPRP stands -0.343.

RRIRCRPPRLPRPRPRPGSSPRP: the “shrunken log2 fold change” value came out at 0.0141.

On to RRIRVRPPRLPRPRPRPPQIPRP, for which the “shrunken log2 fold change” value stood at 0.22. Under RRIRQRPPRLPRPRPRPFGYPRP stands -0.148; under RRIRKRPPRLPRPRPRPRKLPRP, 0.0707.

Consider RRIRHRPPRLPRPRPRPAEDPRP, for which the “shrunken log2 fold change” value was found to be 0.262. Regarding RRIRIRPPRLPRPRPRPYNYPRP, the “shrunken log2 fold change” value was -0.65. In the case of RRIRMRPPRLPRPRPRPRYHPRP it was -0.186; in that of RRIRIRPPRLPRPRPRPAAVPRP, -0.181; in that of RRIRLRPPRLPRPRPRPVDIPRP, -0.183.

RRIRTRPPRLPRPRPRPPYQPRP: the “shrunken log2 fold change” value was determined as 0.0802. In the case of RRIRIRPPRLPRPRPRPNLLPRP it was -0.309. In the case of RRIRPRPPRLPRPRPRPKSRPRP it was 0.154; in that of RRIRLRPPRLPRPRPRPIHGPRP, -0.0797; in that of RRIRLRPPRLPRPRPRPHRWPRP, -0.0172. In the case of RRIRTRPPRLPRPRPRPEHDPRP it was -0.0214; in that of RRIRGRPPRLPRPRPRPGFAPRP, 0.831; in that of RRIRMRPPRLPRPRPRPTHFPRP, 0.86. Consider RRIRRRPPRLPRPRPRPELSPRP, for which the “shrunken log2 fold change” value was 0.0649. Under RRIRERPPRLPRPRPRPWNVPRP stands -0.0549; under RRIRGRPPRLPRPRPRPLQYPRP, -0.251. Under RRIRWRPPRLPRPRPRPVCFPRP stands 0.376; under RRIRDRPPRLPRPRPRPCFDPRP, 0.581; under RRIRCRPPRLPRPRPRPYPCPRP, 0.00458.

Turning to RRIRGRPPRLPRPRPRPPKYPRP, the “shrunken log2 fold change” value is 0.0508. Regarding RRIRNRPPRLPRPRPRPFKDPRP, the “shrunken log2 fold change” value is -0.327.

In the case of RRIRFRPPRLPRPRPRPVMTPRP, the “shrunken log2 fold change” value was -0.218.

Turning to RRIRKRPPRLPRPRPRPLAHPRP, the “shrunken log2 fold change” value turned out to be 0.551. Under RRIRSRPPRLPRPRPRPFKYPRP stands -0.418; under RRIRHRPPRLPRPRPRPIHQPRP, -0.441; under RRIRFRPPRLPRPRPRPIIRPRP, -0.014.
